From patent US20050153395A1, “Unique integrin binding site in connective tissue growth factor (CTGF)” (CHILDREN'S HOSPITAL INC., priority 2003, published 2005)
“Also recorded” adds a separate entry of the source.

Tests used:
3T3 cells = assay: 3T3 cell adhesion to CTGF-coated non-tissue culture plastic; assay type: cell-based; conditions: HPLC-purified E. coli-derived protein
Protocol: (§1) Adhesion is a well-accepted and reproducible measure of CTGF activity. […] Using 4 liters of CHO conditioned medium approximately 0.5 mg, 1 mg, and 0.1 mg, respectively, of 38 kDa, 16-20 kDa, and 10 kDa CTGF (CTGF1-4, CTGF3-4 and CTGF4, respectively) were produced.
(§2) To confirm the functionality of residues 247-349 of SEQ ID NO: 1 (containing module 4 alone; denoted as CTGF4), this region of CTGF was produced as a maltose binding protein (MBP) fusion protein in E. coli as described in Ball et al., J Endocrinol; 176: R1-R7, 2003. […] HPLC-purified 10 kDa CTGF promoted 3T3 cell adhesion in a dose-dependent manner, with maximal binding at 8 ng/well. […] Also, the binding of all cell types to 10 kDa CTGF was reduced by EDTA treatment, though this effect was relatively modest in 3T3 cells. Thus, E coli-derived CTGF isoforms comprising essentially module 4 are intrinsically functional in the absence of the other constituent modules of CTGF.

[1] = tested on: vascular endothelial cells, intestinal epithelial, and hepatic stellate cells; assay: Adhesion of cell types to 10 kDa CTGF; assay type: cell-based; conditions: vascular endothelial, intestinal epithelial, hepatic stellate cells
Protocol: as §2

neonatal mice = assay: Fibrogenic response after subcutaneous administration to neonatal mice; assay type: in vivo; conditions: administered subcutaneously to neonatal mice
Protocol: CTGF is also known to induce transdifferentiaion of corneal epithelial cells into α […] muscle actin (αSMA)-expressing myofibroblasts. For example, cells are cultured for 24 hours in the presence and absence of CTGF peptide or CTGF modulator. Subsequently, the treated cells are stained for αSMA. CTGF activity also may be analyzed by measuring for a classic fibrogenic response as described in Leask et al., Mol. Pathol; 54: 180-183, 2001. For example, CTGF peptide or CTGF modulator are administered into the subcutaneous region of the neck of 3 day old mice for 7 consecutive days. Fourteen days after the last injection, the mice are sacrificed and the injected areas are stained for αSMA.
as §1

integrin αvβ3 = integrin αvβ3 (Homo sapiens, UniProt P05106+P06756); assay: Solid phase ELISA of integrin αvβ3 binding; conditions: coated at different concentrations
Sequence of integrin αvβ3 (P06756 31-889 limits assumed): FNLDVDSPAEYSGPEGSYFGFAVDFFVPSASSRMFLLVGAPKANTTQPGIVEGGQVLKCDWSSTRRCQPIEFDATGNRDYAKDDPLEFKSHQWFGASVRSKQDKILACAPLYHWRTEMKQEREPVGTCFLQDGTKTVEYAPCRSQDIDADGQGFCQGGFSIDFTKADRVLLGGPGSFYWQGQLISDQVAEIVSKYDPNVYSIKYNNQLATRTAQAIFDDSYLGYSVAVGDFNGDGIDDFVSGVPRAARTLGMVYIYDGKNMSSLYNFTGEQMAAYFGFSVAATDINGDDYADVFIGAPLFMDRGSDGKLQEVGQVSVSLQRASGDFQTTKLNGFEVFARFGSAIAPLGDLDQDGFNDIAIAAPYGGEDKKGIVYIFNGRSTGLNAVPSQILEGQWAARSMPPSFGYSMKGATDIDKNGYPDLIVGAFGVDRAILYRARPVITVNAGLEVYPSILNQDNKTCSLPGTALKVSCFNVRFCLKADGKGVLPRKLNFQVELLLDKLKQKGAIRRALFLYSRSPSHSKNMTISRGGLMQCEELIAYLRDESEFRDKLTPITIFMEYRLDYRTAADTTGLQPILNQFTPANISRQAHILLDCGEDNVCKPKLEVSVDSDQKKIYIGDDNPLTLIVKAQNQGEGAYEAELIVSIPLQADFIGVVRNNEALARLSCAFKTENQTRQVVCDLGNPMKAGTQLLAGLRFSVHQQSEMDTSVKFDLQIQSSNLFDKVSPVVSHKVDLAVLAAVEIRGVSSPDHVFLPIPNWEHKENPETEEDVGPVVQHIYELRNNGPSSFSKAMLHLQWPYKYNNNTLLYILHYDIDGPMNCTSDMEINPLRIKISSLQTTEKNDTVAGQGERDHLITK
Sequence of integrin αvβ3 (P06756 891-1048 partner limits assumed): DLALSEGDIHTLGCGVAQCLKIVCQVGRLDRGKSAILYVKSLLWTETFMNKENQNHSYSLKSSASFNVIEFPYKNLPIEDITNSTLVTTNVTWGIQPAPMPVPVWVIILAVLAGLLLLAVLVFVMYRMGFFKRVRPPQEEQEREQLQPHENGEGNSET
Sequence of integrin αvβ3 (P05106 27-788): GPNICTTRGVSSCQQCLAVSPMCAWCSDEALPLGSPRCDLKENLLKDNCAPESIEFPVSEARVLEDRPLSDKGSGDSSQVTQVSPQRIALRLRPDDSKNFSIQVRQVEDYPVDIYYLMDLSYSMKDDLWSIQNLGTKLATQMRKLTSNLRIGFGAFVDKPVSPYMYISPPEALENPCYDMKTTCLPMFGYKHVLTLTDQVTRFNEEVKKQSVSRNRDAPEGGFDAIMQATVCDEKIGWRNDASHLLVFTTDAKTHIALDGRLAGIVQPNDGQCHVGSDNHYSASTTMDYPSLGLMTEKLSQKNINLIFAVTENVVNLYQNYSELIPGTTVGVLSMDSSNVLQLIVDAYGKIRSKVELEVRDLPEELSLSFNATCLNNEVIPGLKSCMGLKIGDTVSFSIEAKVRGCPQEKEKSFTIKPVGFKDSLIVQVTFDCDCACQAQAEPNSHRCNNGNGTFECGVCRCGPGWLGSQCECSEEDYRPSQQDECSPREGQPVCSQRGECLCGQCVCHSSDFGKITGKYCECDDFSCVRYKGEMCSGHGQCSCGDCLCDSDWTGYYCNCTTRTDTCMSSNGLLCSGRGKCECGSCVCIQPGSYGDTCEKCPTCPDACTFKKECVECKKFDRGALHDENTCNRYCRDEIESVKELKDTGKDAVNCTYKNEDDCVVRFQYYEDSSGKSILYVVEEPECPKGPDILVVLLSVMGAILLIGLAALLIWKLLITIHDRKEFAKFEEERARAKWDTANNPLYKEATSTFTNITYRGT
Protocol: Solid phase binding studies were also performed to investigate the binding of CTGF isoforms and αvβ3. Each CTGF isoform or vitronectin was individually coated onto microtiter wells at different concentrations, and the subsequent binding of αvβ3 was detected by ELISA using an anti-human αvβ3 monoclonal antibody. […] Saturation of binding occurred at 2 μg/ml for each CTGF isoform and 4 μg/ml for vitronectin.
In order to identify the αvβ3 binding site in CTGF4, eighteen synthetic peptides spanning the entire C-terminal region of CTGF4 (residues 246-349 of SEQ ID NO: 1) were synthesized and used as potential blocking agents in the solid phase binding studies as described in Example 3. […] Integrin αvβ3 was detected by successive incubation with anti-human αvβ3 monoclonal antibody diluted in blocking solution (1:1000), and followed by HRP-conjugated goat anti-mouse IgG (1:4000). The color reaction was developed using the horseradish peroxidase ELISA reagents (Chemicon), and the absorbance at 450 nm was measured using Bio Assay Reader (HTS700).
The ability of mutant CTGF4 to bind to integrin αvβ3 was assessed by solid phase ELISA which measured the ability of purified integrin αvβ3 to bind to the CTGF4 mutants.

[2] = tested on: pancreatic stellate cells (PSC); assay: PSC adhesion assay on coated wells; assay type: cell-based, rat; conditions: coated at 2 μg/ml
Description: Rat PSCs were isolated by a modification of the method described by Phillips et al., Gut; 52:677-82, 2003. Briefly, pancreatic tissue was digested in situ with 0.03% collagenase P (Roche, Indianapolis, Ind.) in HBSS by perfusion through the thoracic aorta. This protocol was approved by the Institutional Animal Care and Use Committee of Children's Research Institute, Columbus, Ohio. The tissue was pooled, minced with scissors, and then digested with 0.05% collagenase P, 0.02% protease XIV (Sigma, St. Louis), and DNase I (Roche, Indianapolis, Ind.) in HBSS. The resulting cell suspension was centrifuged in a 12% Optiprep gradient at 1400 g for 14 minutes. Stellate cells separated into a hazy band just above the interface of a the gradient and the aqueous buffer. This band was harvested, and the cells washed and resuspended in DMEM supplemented with 25 mM Hepes buffer, 10% FBS, and 100 U/ml penicillin in, 100 μg/ml streptomycin. The, cells were maintained at 37° C. in a humidified atmosphere of 5% CO2/95% air.
The ability of activated PSC to adhere to non-tissue culture plastic microtiter wells coated with recombinant CTGF1-4, CTGF3-4 or CTGF4 was investigated. The solid phase binding assay was carried out as described in Example 2. […] To assess the possibility that CTGF-mediated PSC adhesion involved cell surface integrins, the effect of divalent cations on cell adhesion was examined, as described in Example 2. […]
Because CTGF is a heparin-binding protein, this property was further investigated.
To identify the peptides that bind to PSCs, cell adhesion assays were carried out as described in Example 3.
To further investigate the peptide binding, P2 or P5 (10 μM) or vehicle buffer alone (no add) were added to PSC cell suspensions for 30 minutes at room temperature.

integrin α5β1 = integrin α5β1 (Homo sapiens, UniProt P05556+P08648); assay: Solid phase ELISA of integrin α5β1 binding; conditions: coated at 2 μg/ml; 1 μg/ml integrin
Sequence of integrin α5β1 (P08648 42-894 limits assumed): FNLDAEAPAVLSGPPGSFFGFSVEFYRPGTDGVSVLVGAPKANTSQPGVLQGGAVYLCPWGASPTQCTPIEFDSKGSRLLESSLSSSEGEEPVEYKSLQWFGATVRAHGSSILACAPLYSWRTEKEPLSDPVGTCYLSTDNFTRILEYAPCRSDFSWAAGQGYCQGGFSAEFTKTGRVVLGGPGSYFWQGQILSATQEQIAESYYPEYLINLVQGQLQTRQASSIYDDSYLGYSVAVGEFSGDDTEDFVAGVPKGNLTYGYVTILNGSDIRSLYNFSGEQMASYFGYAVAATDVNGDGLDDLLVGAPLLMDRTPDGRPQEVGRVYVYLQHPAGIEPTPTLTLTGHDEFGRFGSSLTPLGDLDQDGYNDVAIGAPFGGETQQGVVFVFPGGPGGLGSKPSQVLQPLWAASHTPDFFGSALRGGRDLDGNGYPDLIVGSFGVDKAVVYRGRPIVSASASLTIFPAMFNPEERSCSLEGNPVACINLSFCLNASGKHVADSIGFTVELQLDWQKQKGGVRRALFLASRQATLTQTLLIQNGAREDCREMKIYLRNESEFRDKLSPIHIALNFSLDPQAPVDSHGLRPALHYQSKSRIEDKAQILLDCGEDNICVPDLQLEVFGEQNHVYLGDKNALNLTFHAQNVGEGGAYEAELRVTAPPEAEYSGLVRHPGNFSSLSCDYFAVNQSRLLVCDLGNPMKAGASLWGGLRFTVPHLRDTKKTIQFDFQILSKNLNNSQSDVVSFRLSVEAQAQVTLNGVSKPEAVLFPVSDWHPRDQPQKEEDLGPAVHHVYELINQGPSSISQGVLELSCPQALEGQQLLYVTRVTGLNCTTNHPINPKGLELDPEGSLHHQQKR
Sequence of integrin α5β1 (P08648 895-1049 partner limits assumed): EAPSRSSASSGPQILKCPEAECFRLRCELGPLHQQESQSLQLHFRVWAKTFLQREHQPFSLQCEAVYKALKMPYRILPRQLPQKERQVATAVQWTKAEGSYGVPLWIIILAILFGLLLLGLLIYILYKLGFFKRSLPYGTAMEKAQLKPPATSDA
Sequence of integrin α5β1 (P05556 21-798): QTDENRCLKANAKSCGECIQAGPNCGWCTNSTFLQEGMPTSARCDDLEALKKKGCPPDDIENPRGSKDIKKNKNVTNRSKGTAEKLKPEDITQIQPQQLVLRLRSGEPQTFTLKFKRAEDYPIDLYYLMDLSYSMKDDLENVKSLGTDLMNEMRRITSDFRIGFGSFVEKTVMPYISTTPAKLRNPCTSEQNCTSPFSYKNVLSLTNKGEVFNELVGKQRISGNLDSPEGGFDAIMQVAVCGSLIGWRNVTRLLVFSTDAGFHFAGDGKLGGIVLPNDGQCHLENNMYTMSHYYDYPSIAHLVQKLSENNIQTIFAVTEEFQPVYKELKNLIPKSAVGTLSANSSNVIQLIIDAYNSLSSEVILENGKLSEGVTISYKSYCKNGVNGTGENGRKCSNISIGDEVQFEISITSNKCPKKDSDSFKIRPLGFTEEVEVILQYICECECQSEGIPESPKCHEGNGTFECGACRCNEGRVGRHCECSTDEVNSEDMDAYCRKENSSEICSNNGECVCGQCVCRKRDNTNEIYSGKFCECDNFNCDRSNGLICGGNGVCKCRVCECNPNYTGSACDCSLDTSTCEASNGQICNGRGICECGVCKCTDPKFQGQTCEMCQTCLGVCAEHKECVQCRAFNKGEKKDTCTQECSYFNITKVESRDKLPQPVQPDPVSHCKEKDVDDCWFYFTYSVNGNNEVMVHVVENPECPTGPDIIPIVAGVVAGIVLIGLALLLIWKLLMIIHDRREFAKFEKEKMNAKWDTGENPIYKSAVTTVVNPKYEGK
Protocol: In a second approach, a solid phase binding assay was used in which CTGF1-4 or FN were individually coated onto microtiter wells that were subsequently incubated with purified integrin α5β1. The presence of immobilized integrin α5β1 was detected by ELISA using an anti-integrin α5β1 antibody similar to the methods described in Example 3 above. In addition, CTGF1-4 bound to integrin α5β1 in a dose-dependent manner, with maximal binding at 2 μg/ml CTGF. This level of CTGF1-4 (2 μg/ml) binding was the same as that elicited by 2 μg/ml FN, a well known ligand of integrin α5β1. In a similar experiment, 2 μg/ml of CTGF1-4;CTGF3-4 or CTGF4 were individually precoated onto microtiter wells. Using the solid-phase assay, integrin α5β1 bound to CTGF1-4, CTGF3-4 or CTGF4 See FIG. 5 (Panel B).
To directly analyze whether α5β1 integrin binds to CTGF4, microtiter wells coated with CTGF4 (2 μg/ml) or FN (4 μg/ml) were used in an ELISA assay to detect integrin binding, as described in Example 3. For these assays, 1 μg/ml integrin α5β1, alone or in the presence of 35 μM of P2peptide (CTGF[257-272]) and 35 μM of P5 peptide (CTGF [285-291]), were added to the precoated plates. […] The binding between CTGF4 and integrin α5 β1 was blocked by peptide P5 (CTGF [285-291]) or peptide P2 (CTGF[257-272]). […]

PSCs = assay: PSC chemotaxis (migration) assay in culture insert; assay type: cell-based, rat; conditions: substance in lower chamber
Protocol: To examine whether CTGF plays a role in PSC migration, a chemotaxis assay was carried out in which the migratory behavior of PSCs in the upper chamber of a culture insert was assessed following addition of CTGF to the lower chamber. […] PSC migration was also promoted by FN, PDGF or TGF-β1.

binding to αvβ3 (integrin αvβ3): strongest affinity | binding to integrin α5β1 (integrin α5β1): bound; also recorded: bound strongly
B1: CTGF4: C-terminal CTGF fragment comprising essentially module 4 alone, residues 247-349 (protein)
chain: EENIKKGKKCIRTPKISKPIKFELSGCTSMKTYRAKFCGVCTDGRCCTPHRTTTLPVEFKCPDGEVMKKNMMFIKTCACHYNCPGDNDIFESLYYRKMYGDMA
3T3 cell adhesion, maximal binding at (3T3 cells): 8 ng/well | adhesion of several additional cell types [1]: promoted the dose-dependent adhesion | fibrogenic response (neonatal mice): most robust response | PSC adhesion supported by the coated substance [2]: significantly promoted | PSC migration (PSCs): induced PSC migration
